From CN108059681A (BEIJING GEGEN BIOTECHNOLOGY CO LTD; YICON BEIJING MEDICAL …, dated 2018) come the findings set out here.

By Kd is commonly meant a measure of binding affinity in units of concentration. A low value points to tighter binding.

The target in the assay is T1, EGFR蛋白 (UniProt P00533 25-645, limits assumed).
T1 construct: The construct is not described; also called 表皮生长因子受体
Briefly: affinity constant; method not stated.

B1: EGFR ScFv (抗EGFR单链抗体) (scFv)
scFv: QVQLQQWGGGVVQPGRSLRLSCAASGFTFSSYAMHWVRQAPGKGLEWVAVISYDGSNKYYADSVKGRFTISRDNSKNTLYLQMDSLRAEDTAVYYCARSGRYFDWLLPFDYGGGGSGGGGSELALTQPPSASVAPGKTARITCGGNNIGSKSVHWYQQKPGQAPVLVIYYDSDRPSGIPERFSGSNSGNTATLTISRVEAGDEADYYCQVWDSSSDQGVFGGGTQLTVL
notes: Human scFv from a phage library, expressed in E. coli; also called 抗EGFR ScFv
With B1, the Kd was determined as 284 pM.
